Source: US20060094659A1

Key:
[1] = target: CD44 on the surface of U937-C5aR cells and human neutrophils (human) (UniProt P16070); experiment: Biacore SPR, U937-C5aR cells pretreated with 25 µg/ml anti-CD44, DBP immobilized
[2] = target: CD44 on the surface of U937-C5aR cells and human neutrophils (human) (UniProt P16070); experiment: AlexaFluor 488-labeled DBP binding to U937-C5aR cells pretreated with antibody, fluorescence
[3] = target: annexin A2 on the surface of U937-C5aR cells and human neutrophils (human) (UniProt P07355); experiment: as above
[4] = target: cell surface DBP binding site complex; experiment: Biacore SPR, U937-C5aR cells pretreated with 0.5 µM peptide 2, DBP immobilized (competitor: immobilized DBP)

Sequence of annexin A2 on the surface of U937-C5aR cells and human neutrophils (human) (P07355 2-339): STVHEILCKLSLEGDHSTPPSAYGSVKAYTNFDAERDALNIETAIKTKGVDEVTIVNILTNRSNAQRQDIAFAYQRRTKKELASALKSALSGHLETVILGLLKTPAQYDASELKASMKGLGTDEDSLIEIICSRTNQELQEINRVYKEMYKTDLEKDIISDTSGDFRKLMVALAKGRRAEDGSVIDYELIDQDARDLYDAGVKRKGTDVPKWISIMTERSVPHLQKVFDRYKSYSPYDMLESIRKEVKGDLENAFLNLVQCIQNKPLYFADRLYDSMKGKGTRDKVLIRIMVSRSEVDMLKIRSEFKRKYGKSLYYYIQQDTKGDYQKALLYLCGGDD

“affinity-purified goat polyclonal anti-CD44 (N-18), Santa Cruz Biotechnology (antibody)” was tested, and the percent inhibition of cell binding to immobilized DBP [1] was 50% and the percent blocking of DBP binding to cells [2] was 50%.

In the case of “affinity-purified goat polyclonal anti-annexin A2 (C-16), Santa Cruz Biotechnology (antibody)”, the percent blocking of DBP binding to cells [3] is reported as 50%.

B1: DBP peptide 2 (residues 150-172) (peptide)
peptide: NYGQAPLSLLVSYTKSYLSMVGS
Molecule B1 has a percent inhibition of cell binding to immobilized DBP [4] of 50%.
